Measured values taken from PMC2715225 (Nucleic Acids Research, 2009).

Molecular target: T1, His6-tagged human PSF (human, UniProt P23246 1-707)
T1 sequence (looked up): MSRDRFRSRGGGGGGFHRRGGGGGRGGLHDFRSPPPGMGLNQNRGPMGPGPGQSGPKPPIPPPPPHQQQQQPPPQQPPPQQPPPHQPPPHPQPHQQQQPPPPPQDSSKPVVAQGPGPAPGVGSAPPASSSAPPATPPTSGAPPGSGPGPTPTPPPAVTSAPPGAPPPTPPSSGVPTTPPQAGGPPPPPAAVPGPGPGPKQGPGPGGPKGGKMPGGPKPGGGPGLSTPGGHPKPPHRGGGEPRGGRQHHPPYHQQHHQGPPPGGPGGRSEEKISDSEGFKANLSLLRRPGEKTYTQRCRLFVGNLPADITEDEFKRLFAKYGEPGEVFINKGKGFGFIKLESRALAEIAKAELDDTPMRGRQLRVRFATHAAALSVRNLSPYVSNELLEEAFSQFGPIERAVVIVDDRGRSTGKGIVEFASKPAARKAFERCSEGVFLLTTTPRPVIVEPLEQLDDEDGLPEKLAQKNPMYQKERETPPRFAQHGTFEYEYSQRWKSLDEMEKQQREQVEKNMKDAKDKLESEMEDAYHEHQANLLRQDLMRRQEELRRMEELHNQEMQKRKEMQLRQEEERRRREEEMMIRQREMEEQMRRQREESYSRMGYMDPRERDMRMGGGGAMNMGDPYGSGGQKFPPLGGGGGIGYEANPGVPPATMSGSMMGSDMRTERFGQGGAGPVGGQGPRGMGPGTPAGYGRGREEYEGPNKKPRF
Assay: pull-down

B1: Human RAD51 without His6 tag (natural protein, UniProt Q06609 1-339, looked up)
chain: MAMQMQLEANADTSVEEESFGPQPISRLEQCGINANDVKKLEEAGFHTVEAVAYAPKKELINIKGISEAKADKILAEAAKLVPMGFTTATEFHQRRSEIIQITTGSKELDKLLQGGIETGSITEMFGEFRTGKTQICHTLAVTCQLPIDRGGGEGKAMYIDTEGTFRPERLLAVAERYGLSGSDVLDNVAYARAFNTDHQTQLLYQASAMMVESRYALLIVDSATALYRTDYSGRGELSARQMHLARFLRMLLRLADEFGVAVVITNQVVAQVDGAAMFAADPKKPIGGNIIAHASTTRLYLRKGRGETRICKIYDSPCLPEAEAMFAINADGVGDAKD
  stoichiometry N: ~1 PSF:RAD51
